Earlier results on 1 substance are cited in patent US9826773B2, “Brazzen multiple variants of increased sweetness, and production method for same” (CHUNG-ANG UNIVERSITY INDUSTRY—ACADEMIC COOPERATION …, priority 2012, dated 2017).

For the data set the following is noted: cited from earlier work.

Turning to “Brazzein: sweetener protein extracted from the fruit of Pentadiplandra brazzeana (Baillon) (QDKCKKVYENYPVSKCQLANQCNYDCKLDKHARSGECFYDEKRNLQCICDYCEY; UniProt P56552 1-54, looked up)”, the “solubility and pH stability in water” value (Gao et al. 1999) was “very high solubility and pH stability”. Also, the thermal stability entry (background statement) is “very high thermal stability”.
